Source: the supplement of paper PMC9112550, “Optimization of the antimicrobial peptide Bac7 by deep mutational scanning” (BMC Biology, 2022)

Test system: Escherichia coli TOP10
Assay: shrunken log2 fold change of peptide-encoding DNA abundance (4.5 h post-induction vs induction); higher = less antimicrobial activity (less host growth inhibition)
Settings: time post-induction: 4.5 h; library: site-saturation at positions 5, 18, 19, 20
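Further: peptides expressed intracellularly from a pBAD plasmid library in pooled LB shake-flask culture, induced with 0.3% L-arabinose, DNA abundance read by NGS, three biological replicates, DESeq2 with apeglm shrinkage.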

Row | Sequence | shrunken log2 fold change
1 | RRIRSRPPRLPRPRPRPDRTPRP | -0.256
2 | RRIRSRPPRLPRPRPRPDSCPRP | -0.0234
3 | RRIRSRPPRLPRPRPRPDSGPRP | -0.02
4 | RRIRSRPPRLPRPRPRPDSNPRP | -0.529
5 | RRIRSRPPRLPRPRPRPDTDPRP | 0.0794
6 | RRIRSRPPRLPRPRPRPDYMPRP | -0.355
7 | RRIRSRPPRLPRPRPRPEDAPRP | 0.821
8 | RRIRSRPPRLPRPRPRPEDCPRP | 0.0867
9 | RRIRSRPPRLPRPRPRPEDFPRP | -0.149
10 | RRIRSRPPRLPRPRPRPEDSPRP | 0.00839
11 | RRIRSRPPRLPRPRPRPEFSPRP | 0.203
12 | RRIRSRPPRLPRPRPRPEGKPRP | 0.0822
13 | RRIRSRPPRLPRPRPRPEGSPRP | 0.223
14 | RRIRSRPPRLPRPRPRPEGTPRP | 0.123
15 | RRIRSRPPRLPRPRPRPEHAPRP | -0.0123
16 | RRIRSRPPRLPRPRPRPEHEPRP | -0.182
17 | RRIRSRPPRLPRPRPRPEHYPRP | -0.132
18 | RRIRSRPPRLPRPRPRPEIHPRP | 0.0186
19 | RRIRSRPPRLPRPRPRPEIVPRP | 0.412
20 | RRIRSRPPRLPRPRPRPEKGPRP | 0.0255
21 | RRIRSRPPRLPRPRPRPELCPRP | -0.0749
22 | RRIRSRPPRLPRPRPRPELSPRP | 0.963
23 | RRIRSRPPRLPRPRPRPEMSPRP | 0.259
24 | RRIRSRPPRLPRPRPRPEPLPRP | 0.0528
25 | RRIRSRPPRLPRPRPRPEPSPRP | 0.859

Row | Sequence | shrunken log2 fold change
26 | RRIRSRPPRLPRPRPRPEQEPRP | 0.0257
27 | RRIRSRPPRLPRPRPRPERGPRP | -0.0603
28 | RRIRSRPPRLPRPRPRPEWLPRP | 0.625
29 | RRIRSRPPRLPRPRPRPFAMPRP | -0.0258
30 | RRIRSRPPRLPRPRPRPFCLPRP | -0.302
31 | RRIRSRPPRLPRPRPRPFDKPRP | -0.232
32 | RRIRSRPPRLPRPRPRPFDQPRP | -0.256
33 | RRIRSRPPRLPRPRPRPFEQPRP | -0.0212
34 | RRIRSRPPRLPRPRPRPFFEPRP | -0.161
35 | RRIRSRPPRLPRPRPRPFGMPRP | -0.25
36 | RRIRSRPPRLPRPRPRPFGYPRP | -0.179
37 | RRIRSRPPRLPRPRPRPFHCPRP | -0.0582
38 | RRIRSRPPRLPRPRPRPFHPPRP | 0.0938
39 | RRIRSRPPRLPRPRPRPFIMPRP | -1.09
40 | RRIRSRPPRLPRPRPRPFIPPRP | -0.629
41 | RRIRSRPPRLPRPRPRPFNKPRP | -0.81
42 | RRIRSRPPRLPRPRPRPFNQPRP | -0.295
43 | RRIRSRPPRLPRPRPRPFPVPRP | -0.516
44 | RRIRSRPPRLPRPRPRPFRLPRP | -0.793
45 | RRIRSRPPRLPRPRPRPFSIPRP | -0.379
46 | RRIRSRPPRLPRPRPRPFTDPRP | -0.04
47 | RRIRSRPPRLPRPRPRPFVCPRP | -0.326
48 | RRIRSRPPRLPRPRPRPFVKPRP | -0.222
49 | RRIRSRPPRLPRPRPRPFVQPRP | -0.496
50 | RRIRSRPPRLPRPRPRPFWKPRP | -0.125

Row | Sequence | shrunken log2 fold change
51 | RRIRSRPPRLPRPRPRPFYNPRP | -0.54
52 | RRIRSRPPRLPRPRPRPGCGPRP | 0.62
53 | RRIRSRPPRLPRPRPRPGFMPRP | -0.101
54 | RRIRSRPPRLPRPRPRPGGTPRP | 0.247
55 | RRIRSRPPRLPRPRPRPGIHPRP | 0.115
56 | RRIRSRPPRLPRPRPRPGKYPRP | -0.759
57 | RRIRSRPPRLPRPRPRPGLHPRP | 0.186
58 | RRIRSRPPRLPRPRPRPGMTPRP | -0.105
59 | RRIRSRPPRLPRPRPRPGNIPRP | -0.281
60 | RRIRSRPPRLPRPRPRPGNMPRP | -0.12
61 | RRIRSRPPRLPRPRPRPGNQPRP | -0.0918
62 | RRIRSRPPRLPRPRPRPGPLPRP | 0.292
63 | RRIRSRPPRLPRPRPRPGPWPRP | -0.0683
64 | RRIRSRPPRLPRPRPRPGQGPRP | 0.0895
65 | RRIRSRPPRLPRPRPRPGRVPRP | 0.162
66 | RRIRSRPPRLPRPRPRPGSSPRP | -0.168
67 | RRIRSRPPRLPRPRPRPGTDPRP | -0.0659
68 | RRIRSRPPRLPRPRPRPGVAPRP | 0.42
69 | RRIRSRPPRLPRPRPRPGVFPRP | 0.146
70 | RRIRSRPPRLPRPRPRPGWDPRP | 0.444
71 | RRIRSRPPRLPRPRPRPGWKPRP | 0.0342
72 | RRIRSRPPRLPRPRPRPGYRPRP | -0.0248
73 | RRIRSRPPRLPRPRPRPHACPRP | -0.0756
74 | RRIRSRPPRLPRPRPRPHAMPRP | -0.376
75 | RRIRSRPPRLPRPRPRPHCIPRP | 0.021
